Data from patent publication US20120070432A1, “TREATMENT OF PANCREATIC CANCER USING A DR5 AGONIST IN COMBINATION WITH GEMCITABINE” (AMGEN INC., priority 2009, published 2012).

Legend:
[1] = tested on: pancreatic cancer patients; details: gemcitabine alone, Moore et al.; cited from earlier work
[2] = tested on: patients with previously untreated metastatic pancreatic cancer; assay: Multi-center phase I trial of AMG 655 + gemcitabine; assay type: in vivo
From the text: Example 2 describes the treatment of patients with metastatic pancreatic cancer with AMG 655 in combination with gemcitabine.
Conatumumab (AMG 655) is an investigational, fully human agonist monoclonal antibody (IgG1) that binds human death receptor 5 (DR5), activates caspases, and induces apoptosis in sensitive tumor cells. In a multi-center phase I trial to evaluate AMG 655 +gemcitabine in metastatic pancreatic patients. The primary endpoint was dose-limiting toxicity (DLT). Secondary endpoints included toxicity, pharmacokinetics, antibody formation, objective response rate, progression-free survival (PFS), 6-month and overall survival.
Eligible patients had previously untreated metastatic pancreatic cancer and ECOG PS (Eastern Cooperative Oncology Group Performance Status) 0 or 1. Patients were enrolled into sequential cohorts and received AMG 655 3 or 10 mg/kg IV days (D) 1 and 15 and gemcitabine 1000 mg/m^2IV D 1, 8, and 15 every 28 D. CT scans were obtained Q2 cycles.

[3] = tested on: patients with advanced solid tumors; details: cited from earlier work
[4] = dose cohorts 0.3, 1 and 3 mg/kg
[5] = of 13 patients with tumor-response data

In the case of `Nc1ccn([C@@H]2O[C@H](CO)[C@@H](O)C2(F)F)c(=O)n1` [gemcitabine], the “median overall survival (50% survival)” value [1] is listed as “approximately 6 months” and the “survival at 1 year” value [1] is listed as 17%.
For “AMG 655: fully human monoclonal agonist antibody (IgG1) that binds human death receptor 5 (DR5); CAS Registry Number 896731-82-1”, the “anti-AMG 655 antibodies” value ([2]; in combination with gemcitabine) is given as “No anti-AMG 655 antibodies were detected”, the “effect of AMG 655 on pharmacokinetic (PK) of gemcitabine” value ([2]; preliminary data) is given as “no effect” and the DLTs ([3]; 0.3, 1, 3, 10 or 20 mg/kg IV Q2W, 16 patients) is given as “No DLTs”. For the same molecule, the “AMG 655-related serious AEs” value ([3]; 0.3-20 mg/kg IV Q2W, 16 patients) was “No”, the MTD ([3]; 0.3-20 mg/kg IV Q2W) was “not reached” and the “reduction in tumor volume by RECIST” value ([3]; NSCLC patient with partial response) was 46%. The “time on study of partial responder” value ([3]; NSCLC patient, remains on study) was over 48 weeks, the partial response ([3]; NSCLC, tumor-response data for 13 patients) was 1 patient and the “grade 3 or higher AMG 655-related AEs” value ([3]; both in the same patient, 0.3-mg/kg cohort) was “Fatigue and elevated serum lipase”. The “reduction in maximum standardized uptake value (SUVmax)” value ([3]; colorectal cancer patient with stable disease, metabolic partial response (FDG-PET)) was 34%, the half-life [3, 4] was about 240 h and the “kinetics (dose linearity)” value [3, 4] was “dose-linear kinetics”. The “anti-AMG 655 antibodies” value ([3]; monotherapy) was “No anti-AMG 655 antibodies were detected”, the progressive disease [3, 5] was 8 patients and the stable disease [3, 5] was 4 patients. For the same molecule, the “patients reporting AMG 655-related AEs” value ([3]; of 16 patients) was “Nine”, the “treatment-related AE: fatigue” value ([3]; of 16 patients) was 3 patients and the “treatment-related AE: hypomagnesaemia” value ([3]; of 16 patients) was 3 patients. For the same molecule, the “treatment-related AE: pyrexia” value ([3]; of 16 patients) was 4 patients and the tolerability ([3]; up to 20 mg/kg Q2W) was “well tolerated”.
